Assays:
[1] = target: GST-p120-catenin isoform 4A (mouse); assay: pull-down
[2] = target: GST-p120-catenin isoform 4A Δ560–628 (mouse); assay: pull-down

GST-p120-catenin isoform 4A (mouse), sequence (P30999 whole entry, canonical isoform): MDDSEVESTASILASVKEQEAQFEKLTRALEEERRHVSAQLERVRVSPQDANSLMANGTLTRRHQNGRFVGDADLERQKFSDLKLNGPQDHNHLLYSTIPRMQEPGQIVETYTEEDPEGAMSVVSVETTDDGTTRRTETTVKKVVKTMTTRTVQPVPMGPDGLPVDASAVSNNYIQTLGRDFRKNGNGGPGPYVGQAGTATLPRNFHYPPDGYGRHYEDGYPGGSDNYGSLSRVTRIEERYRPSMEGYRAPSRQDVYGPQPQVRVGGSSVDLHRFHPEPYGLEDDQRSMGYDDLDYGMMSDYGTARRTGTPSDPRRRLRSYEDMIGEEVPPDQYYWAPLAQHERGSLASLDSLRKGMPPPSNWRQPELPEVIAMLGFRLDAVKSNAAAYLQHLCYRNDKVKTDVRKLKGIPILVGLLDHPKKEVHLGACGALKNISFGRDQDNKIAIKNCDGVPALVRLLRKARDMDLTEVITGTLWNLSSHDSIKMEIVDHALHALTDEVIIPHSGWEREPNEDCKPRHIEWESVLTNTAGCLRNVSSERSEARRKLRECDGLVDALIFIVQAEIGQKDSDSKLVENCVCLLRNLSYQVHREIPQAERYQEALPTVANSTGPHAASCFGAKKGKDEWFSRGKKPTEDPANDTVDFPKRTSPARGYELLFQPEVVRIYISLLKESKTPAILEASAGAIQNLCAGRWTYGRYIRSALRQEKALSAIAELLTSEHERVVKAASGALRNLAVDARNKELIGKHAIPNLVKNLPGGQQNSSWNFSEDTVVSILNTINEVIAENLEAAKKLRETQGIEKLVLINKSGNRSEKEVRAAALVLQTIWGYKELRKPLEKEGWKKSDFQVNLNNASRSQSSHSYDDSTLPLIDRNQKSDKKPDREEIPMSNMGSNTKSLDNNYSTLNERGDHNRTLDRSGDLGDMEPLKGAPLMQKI

p190RhoGAP-B (from UniProt Q13017 1-1502) (natural protein)
p190B bound, percent of that bound to isoform 3A [1]: 43%
p190B bound, percent of that bound to isoform 3A [2]: 38%
